This note sets out measurements from patent US20250340646A1.

Assay [1] addresses full-length human PD-L1 on K562 cells (human) (UniProt Q9NZQ7). The assay is described as follows: FACS, PD-L1/K562 cells. (In general: A flow cytometer gives signals particle by particle.)
Assay [2] has as its target human PD-L1-Fc (human) (UniProt Q9NZQ7). The experiment in a line: ELISA, coated PD-L1-Fc, anti-FLAG HRP. On the technique in general: An ELISA detects its analyte on a solid surface through an enzyme-linked reagent.
The target of assay [3] is PD-L1 biotinylated (PD-1/PD-L1 TR-FRET assay kit, BPS 72038) (Homo sapiens (Human)) (UniProt Q9NZQ7). The experiment in a line: HTRF competition, competitor PD-1-Eu. Background: In TR-FRET formats the signal depends on donor and acceptor labels being close together.
For assay [4], the target named is human PD-L1-Fc (human) (UniProt Q9NZQ7). The assay is described as follows: SPR, PD-L1-Fc captured, scFv analyte.
Assay [5] addresses PD-L1 on PD-L1 aAPC/CHOK1 cells (Promega J1250). The experiment in a line: cell-based or functional assay.

B1: 2018EP161-F04 scFv (scFv, part only; not given: linker and tags, not shown: small tags and cut ends)
scFv, part: QMQLVQSGAEVKKPGATVKISCKVSGYTFTDYYMHWVQQAPGKGLEWMGLVDPEDGETIYAEKFQGRVTITADTSTDTAYMELSSLRSEDTAVFYCATDGSGSYYLTLGQGTLVTVSSNFMLTQPSSLSASPGASASLTCTLPSGINVGPYGIFWYQQKPGSPPQYLLRYKSNSENHQGSGVPSRFSGSEDASANVGILLISGLQSEDEADYYCMIWHSSAWVFGGGTKVTVL
In general, EC50 refers to the midpoint of the concentration-response curve. High values mean a need for much substance, low ones an effect from little substance. Consider B1, for which the EC50 in assay [1] stood at 5.8 nM.

B2: 2018EP164-F04 scFv (scFv, part only; not given: linker and tags, not shown: small tags and cut ends)
scFv, part: QVQLQQWGAGLLKPSETLSLTCAVYGGSFSGYYWSWIRQPPGKGLEWIGEINHSGSTNYNPSLKSRVTISVDTSKNQFSLKLSSVTAADTAVYYCARGRRLRYFDWAAYNWFDPWGQGTLVTVSSQSALTQDPAVSVALGQTVRITCQGDSLRSHYASWYQQKPGQAPVVVVYDNSDRPSGIPDRFSGSNSGNTATLTISRVEVGDEADYYCQVWDSSSDHYVFGTGTKV
Broadly, the IC50 is the concentration at which inhibition is half-maximal. As a reminder, the Kd is the constant that tells how readily two partners part at equilibrium. Read a low Kd as higher affinity. As usually defined, the koff is the rate constant with which the complex falls apart. As a reminder, the kon is the rate constant with which the complex forms. Higher therefore signals fast association. Turning to B2, the concentration giving a half-maximal response (EC50) in assay [2] was 1.27 nM. Besides, the IC50 in assay [3] came out at 173 nM. In assay [4], this molecule displayed a Kd of 2.94 nM, a koff of 0.000722 s⁻¹ and a kon of 245000 M⁻¹ s⁻¹. For the same molecule, the Jurkat NFAT reporter assay EC50 in assay [5] came to 129 nM.
